Data taken from article PMC9352680, “A comprehensive thermodynamic model for RNA binding by the Saccharomyces cerevisiae Pumilio protein PUF4”.

The binders below were run against T1, PUF4 RNA-binding domain (Saccharomyces cerevisiae, UniProt P25339 537-888) (assay: Mg; RNA-MaP; 20 mM Na-HEPES pH 7.4, 30 mM KOAc, 0.75 mM MgCl2, 0.1% Tween-20, 5% glycerol, 0.1 mg/mL BSA, 2 mM DTT; 25 C; 0.0125-409.6 nM protein). Details: tags: N-His6-TEV cleaved; C-SNAP kept, Cy3B-labelled; label: tethered on chip by stalled RNA polymerase.
T1 sequence: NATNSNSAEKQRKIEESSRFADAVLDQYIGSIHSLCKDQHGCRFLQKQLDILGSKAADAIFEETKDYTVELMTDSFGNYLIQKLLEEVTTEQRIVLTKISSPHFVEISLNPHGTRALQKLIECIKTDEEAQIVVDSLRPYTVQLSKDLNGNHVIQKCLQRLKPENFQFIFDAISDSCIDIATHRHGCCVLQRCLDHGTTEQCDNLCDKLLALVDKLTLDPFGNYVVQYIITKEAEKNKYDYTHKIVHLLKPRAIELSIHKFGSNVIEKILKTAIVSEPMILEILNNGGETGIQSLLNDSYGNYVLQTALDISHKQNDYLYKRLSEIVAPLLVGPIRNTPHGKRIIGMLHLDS

Binder	Kd
UCUCUUUGUAUGCAUUCUCUU (ssRNA) [Ic_S1_P4E.1_K4.1_C4.1_H4.1_A4.1_[A6G]_[T7C]_F4.1_[T8A]_[A9T]_T4.1]	565 nM
UCUCUUUGUAUGAUGUCUCUU (ssRNA) [Ic_S1_P4E.1_K4.1_C4.1_H4.1_A4.1_[A6G]_[T7A]_F4.1_[A9G]_T4.1]	56.7 nM
UCUCUUUGUAUGCCAUCUCUU (ssRNA) [Ic_S1_P4E.1_K4.1_C4.1_H4.1_A4.1_[A6G]_[T7C]_F4.1_[T8C]_T4.1]	472 nM
UCUCUUUGUAUGUGUUCUCUU (ssRNA) [Ic_S1_P4E.1_K4.1_C4.1_H4.1_A4.1_[A6G]_F4.1_[T8G]_[A9T]_T4.1]	92.5 nM
UCUCUUUGUAAAUGCUCUCUU (ssRNA) [Ic_S1_P4E.1_K4.1_C4.1_H4.1_A4.1_[T5A]_F4.1_[T8G]_[A9C]_T4.1]	377 nM
UCUCUUUGUAAACUCUCUCUU (ssRNA) [Ic_S1_P4E.1_K4.1_C4.1_H4.1_A4.1_[T5A]_[T7C]_F4.1_[A9C]_T4.1]	33.8 nM
UCUCUUUGUACACAUCUCUU (ssRNA) [Ic_S1_P3E.1_K3.1_C3.1_H3.1_A3.1_[T5C]_F3.1_[T7C]_T3.1]	46.1 nM
UCUCUUUGUAAAUAGUCUCUU (ssRNA) [Ic_S1_P4E.1_K4.1_C4.1_H4.1_A4.1_[T5A]_F4.1_[T8A]_[A9G]_T4.1]	11.5 nM
UCUCUUUGUAAAAUGUCUCUU (ssRNA) [Ic_S1_P4E.1_K4.1_C4.1_H4.1_A4.1_[T5A]_[T7A]_F4.1_[A9G]_T4.1]	27.1 nM
UCUCUUUGUAAAAAUCUCUU (ssRNA) [Ic_S1_P3E.1_K3.1_C3.1_H3.1_A3.1_[T5A]_F3.1_[T7A]_T3.1]	367 nM
UCUCUUUGUAUGAUCUCUCUU (ssRNA) [Ic_S1_P4E.1_K4.1_C4.1_H4.1_A4.1_[A6G]_[T7A]_F4.1_[A9C]_T4.1]	148 nM
UCUCUUUGUAAAACCUCUCUU (ssRNA) [Ic_S1_P4E.1_K4.1_C4.1_H4.1_A4.1_[T5A]_[T7A]_F4.1_[T8C]_[A9C]_T4.1]	523 nM
UCUCUUUGUAUGCAUCUCUU (ssRNA) [Ic_S1_P3E.1_K3.1_C3.1_H3.1_A3.1_[A6G]_F3.1_[T7C]_T3.1]	1280 nM
UCUCUUUGUAUGUAUUCUCUU (ssRNA) [Ic_S1_P4E.1_K4.1_C4.1_H4.1_A4.1_[A6G]_F4.1_[T8A]_[A9T]_T4.1]	71.2 nM
UCUCUUUGUAUCGGCUCUCUU (ssRNA) [Ic_S1_P4E.1_K4.1_C4.1_H4.1_A4.1_[A6C]_[T7G]_F4.1_[T8G]_[A9C]_T4.1]	2020 nM
UCUCUUUGUAUGUACUCUCUU (ssRNA) [Ic_S1_P4E.1_K4.1_C4.1_H4.1_A4.1_[A6G]_F4.1_[T8A]_[A9C]_T4.1]	41.5 nM
UCUCUUUGUAUCGUGUCUCUU (ssRNA) [Ic_S1_P4E.1_K4.1_C4.1_H4.1_A4.1_[A6C]_[T7G]_F4.1_[A9G]_T4.1]	432 nM
UCUCUUUGUAAACUUUCUCUU (ssRNA) [Ic_S1_P4E.1_K4.1_C4.1_H4.1_A4.1_[T5A]_[T7C]_F4.1_[A9T]_T4.1]	24.7 nM
UCUCUUUGUAAAAUUUCUCUU (ssRNA) [Ic_S1_P4E.1_K4.1_C4.1_H4.1_A4.1_[T5A]_[T7A]_F4.1_[A9T]_T4.1]	33.5 nM
UCUCUUUGUAUGUAGUCUCUU (ssRNA) [Ic_S1_P4E.1_K4.1_C4.1_H4.1_A4.1_[A6G]_F4.1_[T8A]_[A9G]_T4.1]	106 nM

Binder	Kd
UCUCUUUGUAAAUCCUCUCUU (ssRNA) [Ic_S1_P4E.1_K4.1_C4.1_H4.1_A4.1_[T5A]_F4.1_[T8C]_[A9C]_T4.1]	368 nM
UCUCUUUGUAAAAUCUCUCUU (ssRNA) [Ic_S1_P4E.1_K4.1_C4.1_H4.1_A4.1_[T5A]_[T7A]_F4.1_[A9C]_T4.1]	54.4 nM
UCUCUUUGUAUCCGUUCUCUU (ssRNA) [Ic_S1_P4E.1_K4.1_C4.1_H4.1_A4.1_[A6C]_[T7C]_F4.1_[T8G]_[A9T]_T4.1]	1300 nM
UCUCUUUGUAUCGAUCUCUU (ssRNA) [Ib_S1_P3E.1_K3.1_C3.1_H3.1_A3.1_[A6C]_F3.1_[T7G]_T3.1]	1020 nM
UCUCUUUGUAUCCCGUCUCUU (ssRNA) [Ic_S1_P4E.1_K4.1_C4.1_H4.1_A4.1_[A6C]_[T7C]_F4.1_[T8C]_[A9G]_T4.1]	> 2300 nM
UCUCUUUGUAAAAGCUCUCUU (ssRNA) [Ic_S1_P4E.1_K4.1_C4.1_H4.1_A4.1_[T5A]_[T7A]_F4.1_[T8G]_[A9C]_T4.1]	2280 nM
UCUCUUUGUAAACAUCUCUU (ssRNA) [Ib_S1_P3E.1_K3.1_C3.1_H3.1_A3.1_[T5A]_F3.1_[T7C]_T3.1]	424 nM
UCUCUUUGUAUCGGUUCUCUU (ssRNA) [Ic_S1_P4E.1_K4.1_C4.1_H4.1_A4.1_[A6C]_[T7G]_F4.1_[T8G]_[A9T]_T4.1]	938 nM
UCUCUUUGUAAAACAUCUCUU (ssRNA) [Ic_S1_P4E.1_K4.1_C4.1_H4.1_A4.1_[T5A]_[T7A]_F4.1_[T8C]_T4.1]	41.1 nM
UCUCUUUGUAUGGUUUCUCUU (ssRNA) [Ic_S1_P4E.1_K4.1_C4.1_H4.1_A4.1_[A6G]_[T7G]_F4.1_[A9T]_T4.1]	542 nM
UCUCUUUGUAUGUCCUCUCUU (ssRNA) [Ic_S1_P4E.1_K4.1_C4.1_H4.1_A4.1_[A6G]_F4.1_[T8C]_[A9C]_T4.1]	564 nM
UCUCUUUGUAUCCACUCUCUU (ssRNA) [Ic_S1_P4E.1_K4.1_C4.1_H4.1_A4.1_[A6C]_[T7C]_F4.1_[T8A]_[A9C]_T4.1]	981 nM
UCUCUUUGUAUCCCAUCUCUU (ssRNA) [Ic_S1_P4E.1_K4.1_C4.1_H4.1_A4.1_[A6C]_[T7C]_F4.1_[T8C]_T4.1]	709 nM
UCUCUUUGUAAAUAUUCUCUU (ssRNA) [Ic_S1_P4E.1_K4.1_C4.1_H4.1_A4.1_[T5A]_F4.1_[T8A]_[A9T]_T4.1]	26.2 nM
UCUCUUUGUAUCCCCUCUCUU (ssRNA) [Ic_S1_P4E.1_K4.1_C4.1_H4.1_A4.1_[A6C]_[T7C]_F4.1_[T8C]_[A9C]_T4.1]	1020 nM
UCUCUUUGUAAAAACUCUCUU (ssRNA) [Ic_S1_P4E.1_K4.1_C4.1_H4.1_A4.1_[T5A]_[T7A]_F4.1_[T8A]_[A9C]_T4.1]	526 nM
UCUCUUUGUAUGCAGUCUCUU (ssRNA) [Ic_S1_P4E.1_K4.1_C4.1_H4.1_A4.1_[A6G]_[T7C]_F4.1_[T8A]_[A9G]_T4.1]	> 2300 nM
UCUCUUUGUAUGCUUUCUCUU (ssRNA) [Ic_S1_P4E.1_K4.1_C4.1_H4.1_A4.1_[A6G]_[T7C]_F4.1_[A9T]_T4.1]	96.1 nM
UCUCUUUGUAUGCGCUCUCUU (ssRNA) [Ic_S1_P4E.1_K4.1_C4.1_H4.1_A4.1_[A6G]_[T7C]_F4.1_[T8G]_[A9C]_T4.1]	> 2300 nM
UCUCUUUGUAUGGCGUCUCUU (ssRNA) [Ic_S1_P4E.1_K4.1_C4.1_H4.1_A4.1_[A6G]_[T7G]_F4.1_[T8C]_[A9G]_T4.1]	> 2300 nM

Binder	Kd
UCUCUUUGUAUGGCCUCUCUU (ssRNA) [Ic_S1_P4E.1_K4.1_C4.1_H4.1_A4.1_[A6G]_[T7G]_F4.1_[T8C]_[A9C]_T4.1]	> 2300 nM
UCUCUUUGUAAAACUUCUCUU (ssRNA) [Ic_S1_P4E.1_K4.1_C4.1_H4.1_A4.1_[T5A]_[T7A]_F4.1_[T8C]_[A9T]_T4.1]	106 nM
UCUCUUUGUACAAAUCUCUU (ssRNA) [Ic_S1_P3E.1_K3.1_C3.1_H3.1_A3.1_[T5C]_F3.1_[T7A]_T3.1]	100 nM
UCUCUUUGUAUGCUCUCUCUU (ssRNA) [Ic_S1_P4E.1_K4.1_C4.1_H4.1_A4.1_[A6G]_[T7C]_F4.1_[A9C]_T4.1]	677 nM
UCUCUUUGUAUGCUGUCUCUU (ssRNA) [Ic_S1_P4E.1_K4.1_C4.1_H4.1_A4.1_[A6G]_[T7C]_F4.1_[A9G]_T4.1]	685 nM
UCUCUUUGUAAAAAUUCUCUU (ssRNA) [Ic_S1_P4E.1_K4.1_C4.1_H4.1_A4.1_[T5A]_[T7A]_F4.1_[T8A]_[A9T]_T4.1]	373 nM
UCUCUUUGUAUGGCUUCUCUU (ssRNA) [Ic_S1_P4E.1_K4.1_C4.1_H4.1_A4.1_[A6G]_[T7G]_F4.1_[T8C]_[A9T]_T4.1]	1630 nM
UCUCUUUGUAUCGCUUCUCUU (ssRNA) [Ic_S1_P4E.1_K4.1_C4.1_H4.1_A4.1_[A6C]_[T7G]_F4.1_[T8C]_[A9T]_T4.1]	682 nM
UCUCUUUGUAAACUGUCUCUU (ssRNA) [Ic_S1_P4E.1_K4.1_C4.1_H4.1_A4.1_[T5A]_[T7C]_F4.1_[A9G]_T4.1]	17.2 nM
UCUCUUUGUAUGGUCUCUCUU (ssRNA) [Ic_S1_P4E.1_K4.1_C4.1_H4.1_A4.1_[A6G]_[T7G]_F4.1_[A9C]_T4.1]	1260 nM
UCUCUUUGUAUGCGUUCUCUU (ssRNA) [Ic_S1_P4E.1_K4.1_C4.1_H4.1_A4.1_[A6G]_[T7C]_F4.1_[T8G]_[A9T]_T4.1]	1210 nM
UCUCUUUGUAUGCAAUCUCUU (ssRNA) [Ic_S1_P4E.1_K4.1_C4.1_H4.1_A4.1_[A6G]_[T7C]_F4.1_[T8A]_T4.1]	516 nM
UCUCUUUGUAUGACUUCUCUU (ssRNA) [Ic_S1_P4E.1_K4.1_C4.1_H4.1_A4.1_[A6G]_[T7A]_F4.1_[T8C]_[A9T]_T4.1]	804 nM
UCUCUUUGUAUCCAGUCUCUU (ssRNA) [Ic_S1_P4E.1_K4.1_C4.1_H4.1_A4.1_[A6C]_[T7C]_F4.1_[T8A]_[A9G]_T4.1]	2020 nM
UCUCUUUGUAUCGUUUCUCUU (ssRNA) [Ic_S1_P4E.1_K4.1_C4.1_H4.1_A4.1_[A6C]_[T7G]_F4.1_[A9T]_T4.1]	328 nM
UCUCUUUGUAUGUGGUCUCUU (ssRNA) [Ic_S1_P4E.1_K4.1_C4.1_H4.1_A4.1_[A6G]_F4.1_[T8G]_[A9G]_T4.1]	1000 nM
UCUCUUUGUAUCGAUUCUCUU (ssRNA) [Ic_S1_P4E.1_K4.1_C4.1_H4.1_A4.1_[A6C]_[T7G]_F4.1_[T8A]_[A9T]_T4.1]	581 nM
UCUCUUUGUAAAUACUCUCUU (ssRNA) [Ic_S1_P4E.1_K4.1_C4.1_H4.1_A4.1_[T5A]_F4.1_[T8A]_[A9C]_T4.1]	36.7 nM
UCUCUUUGUAUCGACUCUCUU (ssRNA) [Ic_S1_P4E.1_K4.1_C4.1_H4.1_A4.1_[A6C]_[T7G]_F4.1_[T8A]_[A9C]_T4.1]	> 2300 nM
